According to the supplement of paper PMC10724198:
± gives the standard deviation of the averaged measurements.

How the values were obtained:
Saccharomyces cerevisiae [1] = experiment: protein stability index of tFT-peptide fusion (C-terminal peptide) (PSI (0-1 scale)); higher = more stable (slower turnover); conditions: genetic background: wild type; temperature: 30 C
Saccharomyces cerevisiae [2] = experiment: as above
Procedure: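 MPS profiling in S. cerevisiae of the tFT-X12 degron library: putative degron peptides plus stable controls, 12 aa, fused to the C-terminus of a sfGFP-mCherry timer. Cells are FACS-sorted into 8 mCherry/sfGFP bins and deep-sequenced. PSI runs from 0 (unstable) to 1 (stable). Backgrounds are wild type, das1Δ and doa10Δ at 30 °C, and wild type, das1Δ, cdc34-1 and cdc53-1 at 37 °C; 2-3 technical replicates each.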

[3] = genetic background: cdc34-1, temperature: 37 C
[4] = genetic background: cdc53-1, temperature: 37 C
[5] = genetic background: das1 deletion, temperature: 30 C
[6] = genetic background: das1 deletion, temperature: 37 C
[7] = genetic background: doa10 deletion, temperature: 30 C
[8] = genetic background: wild type, temperature: 30 C
[9] = genetic background: wild type, temperature: 37 C
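Note: PSI is a weighted mean of sequencing reads over stability bins, variants kept only with over 10 reads, mCherry proximal and sfGFP distal, peptide attached via GGGS linker.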

Sequence | protein stability index (Saccharomyces cerevisiae [1]) | protein stability index (Saccharomyces cerevisiae [2]; [3]) | protein stability index (Saccharomyces cerevisiae [2]; [4]) | protein stability index (Saccharomyces cerevisiae [2]; [5]) | protein stability index (Saccharomyces cerevisiae [2]; [6]) | protein stability index (Saccharomyces cerevisiae [2]; [7]) | protein stability index (Saccharomyces cerevisiae [2]; [8]) | protein stability index (Saccharomyces cerevisiae [2]; [9])
PIFFFGRLLFFL | 0.369 ± 0.016 | 0.545 ± 0.045 | 0.592 ± 0.022 | 0.467 ± 0.0098 | 0.5856 ± 0.0046 | 0.3094 ± 0.0008 | 0.314 ± 0.014 | 0.499 ± 0.074
LLYSLVALGVCV | 0.3805 ± 0.0005 | 0.329 ± 0.0041 | 0.314 ± 0.011 | 0.28 ± 0.032 | 0.403 ± 0.0012 | 0.24309 ± 0.00016 | 0.277 ± 0.019 | 0.3667 ± 0.0013
ISVQKRRAIEII | 0.451 ± 0.013 | 0.586 ± 0.008 | 0.6379 ± 0.0021 | 0.496 ± 0.03 | 0.626 ± 0.0078 | 0.266 ± 0.008 | 0.305 ± 0.018 | 0.492 ± 0.03
FCCSFFLCVCFV | 0.392 ± 0.0044 | 0.349 ± 0.036 | 0.371 ± 0.0043 | 0.309 ± 0.019 | 0.409 ± 0.007 | 0.29 ± 0.017 | 0.276 ± 0.034 | 0.348 ± 0.013
WAFRLWWFFCLV | 0.375 ± 0.034 | 0.402 ± 0.048 | 0.452 ± 0.02 | 0.437 ± 0.022 | 0.579 ± 0.067 | 0.277 ± 0.01 | 0.257 ± 0.015 | 0.273 ± 0.0095
MLVWCLFWVACV | 0.236 ± 0.0031 | 0.203 ± 0.026 | 0.29 ± 0.0085 | 0.22 ± 0.028 | 0.355 ± 0.01 | 0.148 ± 0.011 | 0.168 ± 0.025 | 0.258 ± 0.0057
SFFLIISFFVRV | 0.338 ± 0.066 | 0.2341 ± 0.0015 | 0.394 ± 0.051 | 0.23 ± 0.049 | 0.366 ± 0.031 | 0.239 ± 0.028 | 0.224 ± 0.054 | 0.336 ± 0.013
GVQVIWGWARVF | 0.0923 ± 0.032 | 0.51 ± 0.14 | 0.595 ± 0.019 | 0.507 ± 0.042 | 0.654 ± 0.019 | 0.0987 ± 0.029 | 0.0712 ± 0.032 | 0.131 ± 0.036
CSAARKDGLAPL | 0.701 ± 0.024 | 0.697 ± 0.038 | 0.722 ± 0.02 | 0.649 ± 0.02 | 0.7342 ± 0.0011 | 0.633 ± 0.021 | 0.649 ± 0.029 | 0.719 ± 0.032
LSPYPLTFLFSQ | 0.51 ± 0.042 | 0.693 ± 0.07 | 0.7506 ± 0.0056 | 0.648 ± 0.014 | 0.742 ± 0.0096 | 0.365 ± 0.014 | 0.393 ± 0.043 | 0.61752 ± 0.00015
NTREGFIILARA | 0.529 ± 0.065 | 0.523 ± 0.014 | 0.537 ± 0.018 | 0.369 ± 0.03 | 0.573 ± 0.022 | 0.296 ± 0.0041 | 0.349 ± 0.066 | 0.5303 ± 0.0025
LFSAFFPLLFLS | 0.112 ± 0.013 | 0.291 ± 0.022 | 0.353 ± 0.0036 | 0.436 ± 0.044 | 0.572 ± 0.02 | 0.107 ± 0.014 | 0.0848 ± 0.0096 | 0.0875 ± 0.00095
GLFWWVWAGFFC | 0.436 ± 0.011 | 0.7005 ± 0.0052 | 0.7681 ± 0.0013 | 0.583 ± 0.023 | 0.8189 ± 0.0055 | 0.428 ± 0.025 | 0.421 ± 0.018 | 0.624 ± 0.056
HLFDMFFFLLHV | 0.441 ± 0.027 | 0.514 ± 0.047 | 0.5932 ± 0.0025 | 0.488 ± 0.022 | 0.611 ± 0.0073 | 0.343 ± 0.0048 | 0.33 ± 0.022 | 0.504 ± 0.01
IYVSVMLLRYRF | 0.465 ± 0.043 | 0.41 ± 0.042 | 0.428 ± 0.018 | 0.342 ± 0.035 | 0.493 ± 0.0097 | 0.3455 ± 0.00077 | 0.331 ± 0.042 | 0.481 ± 0.03
